Changes are numbered by the printed parent chain. Names and notes keep the numbering of the source. Each block holds one binder with its values, some of them ahead of it.
Key:
[1] = biological target: T1, soluble PSCA fused human IgG1 or mouse IgG2a Fc (UniProt O43653 12-86, limits assumed); test: competitive ELISA on coated PSCA-Fc, biotinylated mu1G8 as tracer
T1 construct: also called PSCA-Fc; not shown: human IgG1 Fc or mouse IgG2a Fc
T1 sequence (looked up): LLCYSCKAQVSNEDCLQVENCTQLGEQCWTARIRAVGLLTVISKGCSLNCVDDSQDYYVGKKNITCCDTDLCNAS
Procedure: (§1) The relative binding affinities of the antibodies were measured by competitive ELISA using biotinylated mu1G8 as tracer. Wells were coated with soluble PSCA fused human IgG1 or mouse IgG2a Fc that had been expressed in pEE12 as described above and purified by Protein A affinity chromatography (Poros2.0; PerkinElmer, Wellesley, Mass.). A fixed concentration of biotinylated parental antibody and increasing concentrations of non-biotinylated competitors were used as previously described (Olafsen 2004). Detection of biotinylated antibody was made with alkaline phosphatase-conjugated streptavidin (Jackson ImmunoResearch Laboratories).

[2] = biological target: T1, soluble PSCA fused human IgG1 or mouse …; test: relative binding affinity, competitive ELISA
Procedure: as §1

Kd [1]: ~25 nM
fold higher relative binding affinity compared to hu1G8-A [2]: 6 fold
fold lower binding affinity than mu1G8 [2]: ~5 fold
B1: humanized 1G8 antibody hu1G8-B (antibody, V domains shown)
VH: EVQLVESGGGLVQPGGSLRLSCAASGFNIKDYYIHWVRQAPGKGLEWVAWIDPENGDTEFVPKFQGRATISADTSKNTAYLQMNSLRAEDTAVYYCKTGGFWGQGTLVTVSS
VL: DIQLTQSPSSLSASVGDRVTITCSASSSVRFIHWYQQKPGKAPKRLIYDTSKLASGVPSRFSGSGSGTDFTLTISSLQPEDFATYYCQQWSSSPFTFGQGTKVEIK
notes: Labelled with 124I in the immunoreactivity assays; also called M6B; clone 2B3

Kd [1]: ~150 nM
B2: humanized 1G8 antibody hu1G8-A (antibody, V domains shown)
VH: B1 VH with V61A, P62D, K63S, F64V, Q65K, A68F
VL: B1 VL
notes: also called M6A

Kd [1]: ~5 nM
B3: murine monoclonal antibody 1G8 (antibody, V domains shown)
VH: EVQLQQSGAELVRSGASVKLSCTASGFNIKDYYIHWVNQRPDQGLEWIGWIDPENGDTEFVPKFQGKATMTADIFSNTAYLHLSSLTSEDTAVYYCKTGGFWGQGTLVTVSA
VL: QVVLTQSPAIMSASPGEKVTMACSASSSVRFIHWYQQKSGTSPKRWIYDTSKLASGVPTRFSGSGSGTSYSLTISTMEAEDAATYYCQQWSSSPFTFGSGTKLIIK
notes: Intact murine antibody from hybridoma; also called mu1G8; parental mu1G8

Source: US20060269557A1 (CITY OF HOPE, published 2006)
